Activity data for five sequences are collected here from patent US20250361529.

The data set concerns the target T1, UnCas12f1 (Un1Cas12f1) (UniProt A0A482D308).
T1 sequence: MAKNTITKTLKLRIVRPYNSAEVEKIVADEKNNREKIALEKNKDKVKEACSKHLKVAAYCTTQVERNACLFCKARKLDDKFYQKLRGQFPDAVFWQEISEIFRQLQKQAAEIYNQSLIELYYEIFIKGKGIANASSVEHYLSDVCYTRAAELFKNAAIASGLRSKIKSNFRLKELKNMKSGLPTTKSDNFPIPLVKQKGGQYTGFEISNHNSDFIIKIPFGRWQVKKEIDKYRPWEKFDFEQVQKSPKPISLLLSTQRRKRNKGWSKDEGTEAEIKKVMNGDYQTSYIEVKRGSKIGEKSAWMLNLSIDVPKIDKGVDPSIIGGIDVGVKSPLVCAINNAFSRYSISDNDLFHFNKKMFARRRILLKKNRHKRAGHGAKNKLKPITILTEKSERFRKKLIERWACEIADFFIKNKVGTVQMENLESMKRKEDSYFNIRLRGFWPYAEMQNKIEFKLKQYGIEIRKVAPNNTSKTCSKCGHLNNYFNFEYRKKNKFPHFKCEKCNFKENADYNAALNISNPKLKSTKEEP
As to the kind of experiment: cell_activity.

“ACCGCUUCACUUAGAGUGAAGGUGGGCUGCUUGCAUCAGCCUAAUGUCGAGAAGUGCUUUCUUCGGAAAGUAACCCUCGAAACAAAGAAAGGAAUGCAACNNNNNNNNNNNNNNNNNNNNUUUUAUUUUUUACUGACUACUCCCCAAGUAU / TTTGACTGACTACTCCCCAAGTAT / ATACTTGGGGAGTAGTCAGTCAAA [ge4.1-F110 sgRNA ; DMD F110 target]” returned an activity (ge4.1, PAM TTTG, HEK293, 5 days, no editing detected) of 0 % indel.
On to “ACCGCUUCACUUAGAGUGAAGGUGGGCUGCUUGCAUCAGCCUAAUGUCGAGAAGUGCUUUCUUCGGAAAGUAACCCUCGAAACAAAGAAAGGAAUGCAACNNNNNNNNNNNNNNNNNNNNUUUUAUUUUUUCUCAUUCUCAUGCCUGGACA / TTTGCTCATTCTCATGCCTGGACA / TGTCCAGGCATGAGAATGAGCAAA [ge4.1-F142 sgRNA ; DMD F142 target]”, for which, for the setting “PAM TTTR (TTTG), HEK293, AC16 19.18”, the activity turned out to be 50 % indel.
“ACCGCUUCACUUAGAGUGAAGGUGGGCUGCUUGCAUCAGCCUAAUGUCGAGAAGUGCUUUCUUCGGAAAGUAACCCUCGAAACAAAGAAAGGAAUGCAACNNNNNNNNNNNNNNNNNNNNUUUUAUUUUUUUAGCUAGAUAAACUUGGGCU / TTTATAGCTAGATAAACTTGGGCT / AGCCCAAGTTTATCTAGCTATAAA [ge4.1-R16 sgRNA ; DMD R16 target]” yielded an activity (PAM TTTR (TTTA), HEK293, AC16 29.76) of 58.8 % indel.
As for “ACCGCUUCACCAAAAGCUGUCCCUUAGGGGAUUAGAACUUGAGUGAAGGUGGGCUGCUUGCAUCAGCCUAAUGUCGAGAAGUGCUUUCUUCGGAAAGUAACCCUCGAAACAAAGAAAGGAAUGCAACNNNNNNNNNNNNNNNNNNNNUUUUAUUUUUUCUCAUUCUCAUGCCUGGACA / TTTGCTCATTCTCATGCCTGGACA / TGTCCAGGCATGAGAATGAGCAAA [ge4.0-F142 sgRNA ; DMD F142 target]”, the activity (PAM TTTR (TTTG), HEK293, AC16 48.08) came out at 54 % indel.
In the case of “ACCGCUUCACCAAAAGCUGUCCCUUAGGGGAUUAGAACUUGAGUGAAGGUGGGCUGCUUGCAUCAGCCUAAUGUCGAGAAGUGCUUUCUUCGGAAAGUAACCCUCGAAACAAAGAAAGGAAUGCAACNNNNNNNNNNNNNNNNNNNNUUUUAUUUUUUCUCUCCUAGACCAUUUCCCA / TTTGCTCTCCTAGACCATTTCCCA / TGGGAAATGGTCTAGGAGAGCAAA [ge4.0-R52 sgRNA ; DMD R52 target]”, the activity (PAM TTTR (TTTG), HEK293, AC16 36.47) was determined as 46.1 % indel.
